{
  "source": "paper PMC11898728",
  "target": "RhoA (human) (UniProt P61586)",
  "sequence (P61586 whole entry, the tested form may be a part)": "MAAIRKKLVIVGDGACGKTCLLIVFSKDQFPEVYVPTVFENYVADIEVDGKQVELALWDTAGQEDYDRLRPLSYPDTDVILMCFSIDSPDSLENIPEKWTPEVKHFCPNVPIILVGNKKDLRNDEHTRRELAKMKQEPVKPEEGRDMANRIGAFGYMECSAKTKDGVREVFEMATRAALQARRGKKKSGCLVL",
  "data": [
    {"substance": "VopX (amino acids 26-252), purified (domain or fragment)", "values": [
      {"measurement": "average exchange rate of RhoA in the presence of VopX (in vitro RhoGEF exchange assay with N-MAR-GTP; 1.5 µM GTPase, 0.75 µM N-MAR-GTP, 0.5 µM VopX) (µmol N-MAR-GTP/μmol GTPase/s)", "result": 167}
    ]}
  ]
}
